Data: IntAct's records for PubMed 22624718

B1: Leukocyte antigen CD37 (Homo sapiens), P11049 (parent)
chain: MSAQESCLSLIKYFLFVFNLFFFVLGSLIFCFGIWILIDKTSFVSFVGLAFVPLQIWSKVLAISGIFTMGIALLGCVGALKELRCLLGLYFGMLLLLFATQITLGILISTQRAQLERSLRDVVEKTIQKYGTNPEETAAEESWDYVQFQLRCCGWHYPQDWFQVLILRGNGSEAHRVPCSCYNLSATNDSTILDKVILPQLSRLGHLARSRHSADICAVPAESHIYREGCAQGLQKWLHNNLISIVGICLGVGLLELGFMTLSIFLCRNLDHVYNRLARYR

Variants of: B1
Settings: with lyn_human LYN

Variant	effect of a mutation on the interaction
Y13F	disrupting interaction

Variants of: B1
Settings: with ptn6_human PTPN6, P29350
ptn6_human PTPN6, P29350, sequence (P29350 whole entry): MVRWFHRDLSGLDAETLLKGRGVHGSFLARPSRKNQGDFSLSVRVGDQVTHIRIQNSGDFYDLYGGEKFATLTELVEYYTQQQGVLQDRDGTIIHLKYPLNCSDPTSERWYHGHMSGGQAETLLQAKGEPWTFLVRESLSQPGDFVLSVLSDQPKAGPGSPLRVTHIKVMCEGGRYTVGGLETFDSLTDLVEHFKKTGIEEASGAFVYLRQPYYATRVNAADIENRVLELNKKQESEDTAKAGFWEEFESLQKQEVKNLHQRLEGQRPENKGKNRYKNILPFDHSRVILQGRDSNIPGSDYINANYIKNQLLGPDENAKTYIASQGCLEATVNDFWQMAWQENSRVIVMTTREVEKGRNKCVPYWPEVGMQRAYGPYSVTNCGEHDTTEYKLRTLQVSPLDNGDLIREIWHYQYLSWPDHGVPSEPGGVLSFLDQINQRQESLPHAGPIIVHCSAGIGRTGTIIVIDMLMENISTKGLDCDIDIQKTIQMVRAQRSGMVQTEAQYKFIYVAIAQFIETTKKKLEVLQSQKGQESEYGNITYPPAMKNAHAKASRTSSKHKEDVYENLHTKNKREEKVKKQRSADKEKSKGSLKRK

Variant	effect of a mutation on the interaction
Y13F	disrupting interaction
